The source of these data is publication PMC5472279, “Genetic, structural, and chemical insights into the dual function of GRASP55 in germ cell Golgi remodeling and JAM-C polarized localization during spermatogenesis” (PLoS Genetics, 2017).

Ends that are not written are not given here. * marks the point of attachment. Biotin = O=C1N[C@H]2[C@H](CS[C@H]2CCCCC(=O)*)N1

What all share (conditions): both partners purified
For test [1], the target named is T1, GST-GRASP55 FL (GST-tagged GRASP55 full-length, aa 2-451) (mouse, UniProt Q99JX3 2-451).
T1 construct: Gateway cloning into pDEST15; also called mGRASP55 Full-length (FL); Golgi reassembly stacking protein of 55 kDa; source: E. coli BL21 (DE3), purified (Glutathione sepharose 4B); not shown: GST, N-terminal, kept
Briefly: ITC; GRASP55 protein in the cell (70-150 uM), JAM peptide in the syringe (800-2250 uM); 298 K (25 °C); 100 mM NaPO4 buffer pH 7.5; MicroCal ITC200; one-site fit.

Test [2] concerns the target His-GRASP55 PDZ12 (Histidine-tagged PDZ tandem of GRASP55, aa 2-208) (mouse, UniProt Q99JX3 2-208). Described as above.
The target in test [3] is T2, GST-GRASP55 FL (mGRASP55 Full-length, aa 2-451) (mouse, UniProt Q99JX3 2-451).
T2 construct: GRASP55, mouse, aa 2-451, called full-length (FL); Forward primers with and without a thrombin cleavage site were used; also called full-length GRASP55 protein; source: E. coli BL21 (DE3), purified (Glutathione sepharose 4B); not shown: GST, N-terminal, kept
Briefly: AlphaScreen or HTRF + ITC; the text names HTRF or ITC for the values without telling which; GST-GRASP55 FL with JAM peptides; HTRF: biotinylated peptide competed with unlabeled peptide, 0.05 M HEPES, 0.15 M NaCl, 0.25% BSA pH 7.3, 18 h, 4°C; ITC: peptide in the syringe, protein in the cell, 100 mM NaPO4 pH 7.5, 25°C.

In test [4] the target is T2, GST-GRASP55 FL (mGRASP55 Full-length, …). The test is described as follows: AlphaScreen or HTRF; GST fusion protein, anti-GST antibody coupled to terbium cryptate (1 nM), streptavidin-d2 (1.25 nM), biotinylated peptide (6 nM), competed with non-biotinylated peptide or the compound Graspin; 0.05 M HEPES, 0.15 M NaCl, 0.25% BSA pH 7.3, 18 h, 4°C.
For test [5], the target named is GRASP55 PDZ12, untagged PDZ tandem of GRASP55 (mouse, UniProt Q99JX3 2-208). Briefly: ITC; GRASP55 protein in the cell (70-150 uM), JAM peptide in the syringe (800-2250 uM); 298 K (25 °C); 100 mM NaPO4 buffer pH 7.5; MicroCal ITC200; one-site fit.

B1: JAM-A peptide, carboxy-terminal 19-mer (peptide)
peptide: SQPSTRSEGEFKQTSSFLV
notes: Junctional Adhesion Molecule-A (JAM-A), carboxy-terminal 19 amino acids; source: synthetic peptide (Covalab, France)
With B1, the “stoichiometry N” value in test [1] was 0.8; in test [2] it was 0.9. The same molecule displayed a Kd in test [2] of 14 ± 1 µM.

B2: JAM-C_P19, peptide corresponding to the C-terminal 19-mer of mouse JAM-C (unlabeled) (peptide)
peptide: NYIRTSEEGDFRHKSSFVI
notes: JAM-C, mouse, C-terminal 19-mer; the homologous non-biotinylated form of the printed biotinylated peptide; also called JAM-C peptide; source: synthetic peptide
As for B2, in test [3], the equilibrium dissociation constant (Kd) was determined as 3.7 µM.

B3: Unlabeled (non-biotinylated) JAM-A carboxy-terminal 19-mer peptide (peptide)
peptide: SQPSTRSEGEFKQTSSFLV
notes: JAM-A, carboxy-terminal 19 amino acids; the homologous non-biotinylated form of the printed biotinylated peptide; source: synthetic peptide
Turning to B3, in test [3], the Kd was 27 µM.

B4: Biotinylated 19-mer peptide of the carboxy-terminal sequence of JAM-A (peptide)
peptide: Biotin-SQPSTRSEGEFKQTSSFLV
notes: JAM-A, carboxy-terminal 19 amino acids; source: synthetic peptide (Covalab, France)
For B4, the binding result in test [4] was “binds”.

B5: JAM-B_P19, peptide corresponding to the C-terminal 19-mer of mouse JAM-B (unlabeled) (peptide)
peptide: SKVTTMSENDFKHTKSFII
notes: JAM-B, mouse, C-terminal 19-mer; the homologous non-biotinylated form of the printed biotinylated peptide; also called JAM-B peptide; source: synthetic peptide
Take B5: the Kd in test [3] is 4.9 µM.

B6: JAM-B peptide, carboxy-terminal 19-mer (JAM-B_P19) (peptide)
peptide: SKVTTMSENDFKHTKSFII
notes: Junctional Adhesion Molecule-B (JAM-B), mouse, carboxy-terminal 19 amino acids; source: synthetic peptide (Covalab, France)
With B6, the “stoichiometry N” value in test [1] is 0.9. For the same molecule, in test [2], the Kd is 1.2 ± 0.1 µM and the “stoichiometry N” value was 1.3.

B7: Biotinylated 19-mer peptide of the carboxy-terminal sequence of JAM-B (peptide)
peptide: Biotin-SKVTTMSENDFKHTKSFII
notes: JAM-B, mouse, carboxy-terminal 19 amino acids; source: synthetic peptide (Covalab, France)
As to B7, the binding result in test [4] is on record as “binds”.

B8: JAM-C peptide, carboxy-terminal 19-mer (JAM-C_P19) (peptide)
peptide: NYIRTSEEGDFRHKSSFVI
notes: Junctional Adhesion Molecule-C (JAM-C), mouse, encoded by Jam3, carboxy-terminal 19 amino acids; source: synthetic peptide (Covalab, France)
Consider B8, for which the “stoichiometry N” value in test [1] was 1; in test [2], 1; in test [5], 1.1. The Kd came to 7.1 ± 0.1 µM in test [2] and 3.8 ± 0.1 µM in test [5].

B9: Biotinylated 19-mer peptide of the carboxy-terminal sequence of JAM-C (peptide)
peptide: Biotin-NYIRTSEEGDFRHKSSFVI
notes: JAM-C, mouse, carboxy-terminal 19 amino acids; source: synthetic peptide (Covalab, France)
With B9, the binding result in test [4] is reported as “binds”.
